Assay results published in paper PMC6821326 (Nucleic Acids Research, 2019).

Biological target: T1, wild-type YoeB toxin, YoeB(His)6 (Escherichia coli, UniProt P69348)
T1 sequence: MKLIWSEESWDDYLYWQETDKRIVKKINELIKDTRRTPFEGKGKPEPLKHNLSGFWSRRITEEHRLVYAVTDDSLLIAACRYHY
Test: pull-down

B1: YefM antitoxin (natural protein)
chain: MRTISYSEARQNLSATMMKAVEDHAPILITRQNGEACVLMSLEEYNSLEETAYLLRSPANARRLMDSIDSLKSGKGTEKDIIE
Does B1 bind?
Result: binds
